B1: A1 (designed binder)
chain: MKGETTTEAVDAATAEKVFKQYANDNGVDGEWTYDDATKTFTVTEKPEVIDASELTPAVTTYKLVINGRTLSGYTTTTAVDAATAEKVFKQYAYVHEVDGEWTYDDATKTFTVTEKPEVIDASELTPAVTTYKLVINGRTLSGETTTKAVDAETAEKAFKQYANDNGVDGVWTYDDATKTFTVTE
B2: WT (other)
chain: LTPAVTTYKLVINGKTLKGETTTKAVDAATAEKVFKQYANDNGVDGEWTYDDATKTFTVTEKPEVI

Molecular target: human IgG1 scaffold
Experiment: SPR

Binder | Kd
B1 | 0.024 µM
B2 | 3 µM

From patent US20180044385A1 (published 2018)
